Usually EC50 stands for the midpoint of the concentration-response curve. A lower EC50 goes with a more potent agent.

Test [1] addresses human Claudin18.1 expressed on cells (human) (UniProt P56856). Nature of the test: flow cytometry on 293FT-hClaudin18.1 cells, antibody 10 ug/mL, cells with antibody binding/total cells. On the technique in general: In flow cytometry, cells or beads pass a laser one at a time.
The target in test [2] is human Claudin18.2 expressed on cells (human) (UniProt P56856). Nature of the test: flow cytometry on 293FT-hClaudin18.2 cells, antibody 10 ug/mL, cells with antibody binding/total cells.
Test [3] has as its target human Claudin18.1 expressed on cells (human) (UniProt P56856). Nature of the test: flow cytometry on 293FT CLDN18.1-Luc cells, APC anti-mouse IgG Fc.

Substitutions are numbered along the chain they refer to.

B1: 1-hIgG1Fc (Fc fusion, not shown: a dimerising Fc or GST)
chain: EVQLVGSGGGLVQPGGSLRLSCAASGSILNLMTTGWYRQAPGKQRDLVATITFGGTTNYADSVKGRFTISRDKSKNTAYLQMDNLKPEDTAVYFCYADVIVGFQDRRVAWDAGTQVTVSS
Regarding B1, the binding percentage is 2.75% in test [1] and 88.9% in test [2].

B2: 8-hIgG1Fc (Fc fusion, not shown: a dimerising Fc or GST)
chain: QVQLVESGGGLVQPGGSLRLSCAASGSIFGLNFMGWWRQAPGSQRELVAIATSGGSIQYGDSVKGRFTISRDNAKNTVYLQMASLKPEDTAVYYCNVHTYDFLGRDYWGQGTQVTVSL
For the molecule B2, the binding percentage in test [1] amounted to 2.26%; in test [2], 93.9%.

B3: 10-hIgG1Fc (Fc fusion, not shown: a dimerising Fc or GST)
chain: QVQLAESGGGLVQPGGSLRLSCAASGNILSINYMGWYRQAPGKERELVATITRGGTTNYQGDLKGRFIISGDNTKDTVYLQMNNLQPEDTAVYYCYFRINFGILGGLRDYWGQGTQVTVSS
Consider B3, for which the binding percentage is 2.06% in test [1] and 96.1% in test [2].

B4: 2-mIgG2aFc (Fc fusion, not shown: a dimerising Fc or GST)
chain: B3 chain with Q1E, A5V, T56S, D62N
In the case of B4, the EC50 in test [3] came out at 133 nM.

B5: 5-hIgG1Fc (Fc fusion, not shown: a dimerising Fc or GST)
chain: QVQLVESGGGLVQTGGSLRLSCAASDSTFSSYIMGWFRQAPGKEREFVAGITWSGGIKDYADSVKGRFTIARDNAKNTVYLQMNSLKPEDAAIYYCAANAIQLTRRSGDYAYWGQGTQVTVSS
Regarding B5, the results for the binding percentage in test [1] and in test [2] were 2.06% and 96%, respectively.

The values are drawn from patent EP4682169A1.
